Target: spike protein (Spike, S protein) of SARS-CoV-2 (UniProt P0DTC2 14-1273)
Assay: SPR

B1: antigen-binding unit ABU-174 (antibody, V domains shown)
VH: QVQLQQWGAGLLKPSETLSLTCAVYGGSFSDYYWNWIRRPPGKGLEWIGEITHSGSTNYNPSLKSRVTISVDTSKNQFSLKLSSVTAADTAVYYCARGQGYGRVLLWFGEWGQGTLVTVSS
VL: EIVLTQSPATLSLSPGERATLSCRASQSVSTYLAWYQQKPGQAPRLLIYDASNRATGIPARFSGSGSGTDFTLTISSLEPEDFAVYYCQQRSNWITFGQGTRLEIK
  Kd: 285 pM
